Source: patent US20090117613A1, “Method for redox reaction using an old yellow enzyme” (priority 2007, published 2009)

How the values were obtained:
[1] = GkOYE-catalyzed desaturation of testosterone to boldenone (HPLC/MS); type: biochemical; details: 30-70° C., varied in 5° C. increments
[2] = Reduction of carvone to dihydrocarvone; type: biochemical; details: cyclohexenone and carvone as substrates
Experimental: The sample for the reduction reaction contained: 500 μL protein solution+(+)Carvone (˜1.5 μL)+200 μL GDH 102 (10 mg/mL) and Glucose (200 mM)+100 μL NADPH (10 mM). The final volume of the reaction was 800 μL. The reaction was carried out for 24 h at various temperatures (see table 2).

[3] = Desaturation of cyclohexanone to cyclohex-2-enone and phenol; details: 30, 50, and 70° C.
Experimental: The reaction sample contained 500 μL protein solution and 10 mM Cyclohexanone (˜1 μL). The final volume of the reaction was ˜500 μL. The reaction was carried out at 70° C. for 24 hours.
(§1) The desaturation reaction was carried out using cyclohexanone with all three enzymes at 30, 50, and 70° C. The reductase activity using cyclohexenone as substrate was also measured under similar conditions.

[4] = Reductase activity using cyclohexenone as substrate; type: biochemical; details: for reductase activity (saturation of cyclohexenone): 30, 50, and 70° C.
Experimental: as §1

Molecule	testosterone hydroxylation or desaturation (oxidized testosterone derivative) [1]	stereoselectivity of reductase activity [2]	desaturation of cyclohexanone [3]	reductase activity (saturation of cyclohexenone) [4]	enone reductase activity ([4]; 70° C.)
YqjM: Homologous OYE from Bacillus subtilis (similarity: 80%), expression clone from TU-Graz (protein, UniProt P54550 2-338, looked up) NADPH dehydrogenase: ARKLFTPITIKDMTLKNRIVMSPMCMYSSHEKDGKLTPFHMAHYISRAIGQVGLIIVEASAVNPQGRITDQDLGIWSDEHIEGFAKLTEQVKEQGSKIGIQLAHAGRKAELEGDIFAPSAIAFDEQSATPVEMSAEKVKETVQEFKQAAARAKEAGFDVIEIHAAHGYLIHEFLSPLSNHRTDEYGGSPENRYRFLREIIDEVKQVWDGPLFVRVSASDYTDKGLDIADHIGFAKWMKEQGVDLIDCSSGALVHADINVFPGYQVSFAEKIREQADMATGAVGMITDGSMAEEILQNGRADLIFIGRELLRDPFFARTAAKQLNTEIPAPVQYERGW	no oxidized testosterone derivative is detected	comparable to GkOYE	no desaturation was observed	significantly reduced reductase activity	demonstrated
OPR3: OPR3 (tomato) recombinant OYE, expression clone from TU-Graz (protein, UniProt Q9FEW9 1-396, looked up) 12-oxophytodienoate reductase …: MASSAQDGNNPLFSPYKMGKFNLSHRVVLAPMTRCRALNNIPQAALGEYYEQRATAGGFLITEGTMISPTSAGFPHVPGIFTKEQVREWKKIVDVVHAKGAVIFCQLWHVGRASHEVYQPAGAAPISSTEKPISNRWRILMPDGTHGIYPKPRAIGTYEISQVVEDYRRSALNAIEAGFDGIEIHGAHGYLIDQFLKDGINDRTDEYGGSLANRCKFITQVVQAVVSAIGADRVGVRVSPAIDHLDAMDSNPLSLGLAVVERLNKIQLHSGSKLAYLHVTQPRYVAYGQTEAGRLGSEEEEARLMRTLRNAYQGTFICSGGYTRELGIEAVAQGDADLVSYGRLFISNPDLVMRIKLNAPLNKYNRKTFYTQDPVVGYTDYPFLQGNGSNGPLSRL		comparable to GkOYE	no desaturation was observed	almost inactive at 50 °C	
